This is an account of results in article PMC10213376 (Redox Biology, 2023).

This data set concerns the molecule itself. The experiment in a line: crystal structure.

B1: Human catalase (CAT) (enzyme)
chain: MADSRDPASDQMQHWKEQRAAQKADVLTTGAGNPVGDKLNVITVGPRGPLLVQDVVFTDEMAHFDRERIPERVVHAKGAGAFGYFEVTHDITKYSKAKVFEHIGKKTPIAVRFSTVAGESGSADTVRDPRGFAVKFYTEDGNWDLVGNNTPIFFIRDPILFPSFIHSQKRNPQTHLKDPDMVWDFWSLRPESLHQVSFLFSDRGIPDGHRHMNGYGSHTFKLVNANGEAVYCKFHYKTDQGIKNLSVEDAARLSQEDPDYGIRDLFNAIATGKYPSWTFYIQVMTFNQAETFPFNPFDLTKVWPHKDYPLIPVGKLVLNRNPVNYFAEVEQIAFDPSNMPPGIEASPDKMLQGRLFAYPDTHRHRLGPNYLHIPVNCPYRARVANYQRDGPMCMQDNQGGAPNYYPNSFGAPEQQPSALEHSIQYSGEVRRFNTANDDNVTQVRAFYVNVLNEEQRKRLCENIAGHLKDAQIFIQKKAVKNFTEVHPDYGSHIQALLDKYNAEKPKNAIHTFVQSGSHLAAREKANL
Broadly, the stoichiometry N is the number of molecules, sites or subunits per partner or assembly. For B1, the “stoichiometry N” value was found to be 4.
